Results reported in paper PMC6883073, “Unraveling Determinants of Affinity Enhancement in Dimeric Aptamers for a Dimeric Protein”.

How the values were obtained:
VEGF-165 [1] = molecular target: T1, VEGF-165 (UniProt P15692-4 27-191); assay: EMSA; 10 nM VEGF-165; PBS + 0.005% Tween 20, pH 7.4 (+50 mM KCl for aptamer B); 2.5 nM aptamer heated at 90 C and cooled, 1 h incubation (temperature not stated, RT?); 7.5% PAGE in 0.5x TB pH 8.3 at 4 C; conditions: protein: recombinant; tags: His-tag; chain copies: 2; label: 5' fluorescein
VEGF-165 [2] = molecular target: T1, VEGF-165; assay: as above; conditions: protein: recombinant; tags: His-tag; chain copies: 2; label: 5' fluorescein; remark: listed apart in the source
VEGF-165 [3] = molecular target: T1, VEGF-165; assay: EMSA; middle + top bands combined; PBS + 0.005% Tween 20, pH 7.4 (+50 mM KCl for aptamer B); 2.5 nM aptamer heated at 90 C and cooled, 1 h incubation (temperature not stated, RT?); 7.5% PAGE in 0.5x TB pH 8.3 at 4 C; conditions: protein: recombinant; tags: His-tag; chain copies: 2; label: 5' fluorescein
VEGF-165 [4] = molecular target: T1, VEGF-165; assay: EMSA; top band only (1 aptamer:2 protein), apparent; PBS + 0.005% Tween 20, pH 7.4 (+50 mM KCl for aptamer B); 2.5 nM aptamer heated at 90 C and cooled, 1 h incubation (temperature not stated, RT?); 7.5% PAGE in 0.5x TB pH 8.3 at 4 C; conditions: protein: recombinant; tags: His-tag; chain copies: 2; label: 5' fluorescein
VEGF-165 [5] = molecular target: T1, VEGF-165; assay: EMSA; PBS + 0.005% Tween 20, pH 7.4 (+50 mM KCl for aptamer B); 2.5 nM aptamer heated at 90 C and cooled, 1 h incubation (temperature not stated, RT?); 7.5% PAGE in 0.5x TB pH 8.3 at 4 C; conditions: protein: recombinant; tags: His-tag; chain copies: 2; label: 5' fluorescein
VEGF-165 [6] = molecular target: T1, VEGF-165; assay: competition; displaces fC; 50 nM VEGF-165; PBS + 0.005% Tween 20, pH 7.4 (+50 mM KCl for aptamer B); 2.5 nM aptamer heated at 90 C and cooled, 1 h incubation (temperature not stated, RT?); 7.5% PAGE in 0.5x TB pH 8.3 at 4 C; conditions: protein: recombinant; tags: His-tag; chain copies: 2
VEGF-165 [7] = molecular target: T1, VEGF-165; assay: competition; displaces fA; 10 nM VEGF-165; PBS + 0.005% Tween 20, pH 7.4 (+50 mM KCl for aptamer B); 2.5 nM aptamer heated at 90 C and cooled, 1 h incubation (temperature not stated, RT?); 7.5% PAGE in 0.5x TB pH 8.3 at 4 C; conditions: protein: recombinant; tags: His-tag; chain copies: 2
VEGF-165 [8] = molecular target: T1, VEGF-165; assay: EMSA; curve superimposed on AT10C; PBS + 0.005% Tween 20, pH 7.4 (+50 mM KCl for aptamer B); 2.5 nM aptamer heated at 90 C and cooled, 1 h incubation (temperature not stated, RT?); 7.5% PAGE in 0.5x TB pH 8.3 at 4 C; conditions: protein: recombinant; tags: His-tag; chain copies: 2; label: 5' fluorescein
VEGF-121 = VEGF-121 (UniProt P15692-9 27-147); assay: EMSA; up to 333.3 nM VEGF-121; PBS + 0.005% Tween 20, pH 7.4 (+50 mM KCl for aptamer B); 2.5 nM aptamer heated at 90 C and cooled, 1 h incubation (temperature not stated, RT?); 7.5% PAGE in 0.5x TB pH 8.3 at 4 C; conditions: protein: recombinant; tags: His-tag; chain copies: 2; label: 5' fluorescein
VEGF-121, sequence (P15692 other isoform, or with tags, fused parts or gaps): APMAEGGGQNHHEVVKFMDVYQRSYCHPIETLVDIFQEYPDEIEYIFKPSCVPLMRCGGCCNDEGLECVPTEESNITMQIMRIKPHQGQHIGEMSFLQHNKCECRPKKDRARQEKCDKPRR

T1 sequence (P15692 other isoform, or with tags, fused parts or gaps): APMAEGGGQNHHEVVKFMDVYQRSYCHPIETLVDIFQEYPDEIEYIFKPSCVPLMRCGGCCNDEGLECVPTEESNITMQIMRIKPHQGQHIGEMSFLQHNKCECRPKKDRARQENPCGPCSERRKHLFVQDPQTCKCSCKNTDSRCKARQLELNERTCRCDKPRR

B1: CT10C (structured_DNA)
DNA: CAATTGGGCCCGTCCGTATGGTGGGTTTTTTTTTTTCAATTGGGCCCGTCCGTATGGTGGGT
- binding signal (VEGF-165 [1]): ~0.35 fraction bound

B2: CT20A (structured_DNA)
DNA: CAATTGGGCCCGTCCGTATGGTGGGTTTTTTTTTTTTTTTTTTTTTGCCCGTCTTCCAGACAAGAGTGCAGGGC
- binding result (VEGF-165 [2]): binds

B3: AT10C (structured_DNA)
DNA: GCCCGTCTTCCAGACAAGAGTGCAGGGCTTTTTTTTTTCAATTGGGCCCGTCCGTATGGTGGGT
- Kd (VEGF-165 [3]): 12.1 ± 1.9 nM
- Kd (VEGF-165 [4]): 87.3 ± 4.9 nM

Binder: CAATTGGGCCCGTCCGTATGGTGGGT (structured_DNA) [fC (SL2-B)]
- Kd (VEGF-165 [5]): 37.9 ± 14 nM

B4: AT30C (structured_DNA)
DNA: GCCCGTCTTCCAGACAAGAGTGCAGGGCTTTTTTTTTTTTTTTTTTTTTTTTTTTTTTCAATTGGGCCCGTCCGTATGGTGGGT
- binding result (VEGF-165 [2]): binds

B5: nfCT100 (structured_DNA)
DNA: CAATTGGGCCCGTCCGTATGGTGGGTTTTTTTTTTTTTTTTTTTTTTTTTTTTTTTTTTTTTTTTTTTTTTTTTTTTTTTTTTTTTTTTTTTTTTTTTTTTTTTTTTTTTTTTTTTTTTTTTT
- binding result (VEGF-165 [6]): binds

B6: AT60A (structured_DNA)
DNA: GCCCGTCTTCCAGACAAGAGTGCAGGGCTTTTTTTTTTTTTTTTTTTTTTTTTTTTTTTTTTTTTTTTTTTTTTTTTTTTTTTTTTTTGCCCGTCTTCCAGACAAGAGTGCAGGGC
- Kd (VEGF-165 [5]): 7 ± 1.5 nM

B7: CT0C (structured_DNA)
DNA: CAATTGGGCCCGTCCGTATGGTGGGTCAATTGGGCCCGTCCGTATGGTGGGT
- Kd (VEGF-165 [3]): 13.6 ± 2.7 nM
- binding signal (VEGF-165 [1]): ~0.35 fraction bound
- Kd (VEGF-165 [4]): 74.8 ± 3.5 nM

B8: nfAT100 (structured_DNA)
DNA: GCCCGTCTTCCAGACAAGAGTGCAGGGCTTTTTTTTTTTTTTTTTTTTTTTTTTTTTTTTTTTTTTTTTTTTTTTTTTTTTTTTTTTTTTTTTTTTTTTTTTTTTTTTTTTTTTTTTTTTTTTTTTTT
- binding result (VEGF-165 [7]): binds

B9: CT20C (structured_DNA)
DNA: CAATTGGGCCCGTCCGTATGGTGGGTTTTTTTTTTTTTTTTTTTTTCAATTGGGCCCGTCCGTATGGTGGGT
- binding signal (VEGF-165 [1]): ~0.35 fraction bound

B10: AT60C (structured_DNA)
DNA: GCCCGTCTTCCAGACAAGAGTGCAGGGCTTTTTTTTTTTTTTTTTTTTTTTTTTTTTTTTTTTTTTTTTTTTTTTTTTTTTTTTTTTTCAATTGGGCCCGTCCGTATGGTGGGT
- binding result (VEGF-165 [8]): binds

B11: CT0A (structured_DNA)
DNA: CAATTGGGCCCGTCCGTATGGTGGGTGCCCGTCTTCCAGACAAGAGTGCAGGGC
- binding result (VEGF-165 [2]): binds

B12: AT0C (structured_DNA)
DNA: GCCCGTCTTCCAGACAAGAGTGCAGGGCCAATTGGGCCCGTCCGTATGGTGGGT
- binding result (VEGF-165 [2]): binds

B13: CT30A (structured_DNA)
DNA: CAATTGGGCCCGTCCGTATGGTGGGTTTTTTTTTTTTTTTTTTTTTTTTTTTTTTTGCCCGTCTTCCAGACAAGAGTGCAGGGC
- binding result (VEGF-165 [2]): binds

Binder: GCCCGTCTTCCAGACAAGAGTGCAGGGC (structured_DNA) [fA (+5'GC+3'C)]
- binding result (VEGF-121): no binding
- Kd (VEGF-165 [5]): 9.9 ± 1.3 nM

B14: CT10A (structured_DNA)
DNA: CAATTGGGCCCGTCCGTATGGTGGGTTTTTTTTTTTGCCCGTCTTCCAGACAAGAGTGCAGGGC
- binding result (VEGF-165 [2]): binds

B15: CT60C (structured_DNA)
DNA: CAATTGGGCCCGTCCGTATGGTGGGTTTTTTTTTTTTTTTTTTTTTTTTTTTTTTTTTTTTTTTTTTTTTTTTTTTTTTTTTTTTTCAATTGGGCCCGTCCGTATGGTGGGT
- Kd (VEGF-165 [5]): 22.4 ± 1 nM

B16: AT20A (structured_DNA)
DNA: GCCCGTCTTCCAGACAAGAGTGCAGGGCTTTTTTTTTTTTTTTTTTTTGCCCGTCTTCCAGACAAGAGTGCAGGGC
- Kd (VEGF-165 [3]): 5.5 ± 0.9 nM
- Kd (VEGF-165 [4]): 145 ± 11.6 nM

B17: AT20C (structured_DNA)
DNA: GCCCGTCTTCCAGACAAGAGTGCAGGGCTTTTTTTTTTTTTTTTTTTTCAATTGGGCCCGTCCGTATGGTGGGT
- binding result (VEGF-165 [2]): binds

B18: CT30C (structured_DNA)
DNA: CAATTGGGCCCGTCCGTATGGTGGGTTTTTTTTTTTTTTTTTTTTTTTTTTTTTTTCAATTGGGCCCGTCCGTATGGTGGGT
- binding signal (VEGF-165 [1]): ~0.35 fraction bound
